The source of these data is patent publication US20240124563A1.

Experiment [1] has as its target human MSLN protein endogenously expressed on tumor cells (Hela, OVCAR3) (human) (UniProt Q13421). Nature of the experiment: FACS, OVCAR3 cells, antibody 2 nM. For orientation: A flow cytometer gives signals particle by particle.
Experiment [2] shares this target. Nature of the experiment: FACS, OVCAR3 cells, antibody 0.16 nM.
Experiment [3] concerns the target chimeric human MSLN-R3 / chicken MSLN-R1-2 protein on HEK293T cells (clone A5) (chicken; human). Nature of the experiment: FACS, HEK293T-chickR1-2/hR3-A5 cells.
Experiment [4] deals with human MSLN full-length protein, recombinant, on CHO-K1 or HEK293T cells (human) (UniProt Q13421). Nature of the experiment: FACS, HEK293T-hMSLN-B8 cells, antibody 0.2 nM.
Experiment [5] deals with human MSLN full-length protein on transfected cells (CHO-K1-hMSLN clones 2C8, 2D11, 2C5; HEK293T-hMSLN clones B8, 2A4, 2A7) (human) (UniProt Q13421). Kind of experiment: FACS, CHO-K1-hMSLN-2C8 cells, antibody 0.16 nM.
Experiment [6] deals with monkey MSLN full-length protein on HEK293T cells (monkey). Kind of experiment: FACS, HEK293T-monkey-MSLN cells, antibody 100 nM.
The target in experiment [7] is human MSLN full-length protein, recombinant, on CHO-K1 or HEK293T cells (human) (UniProt Q13421). Nature of the experiment: competitive FACS on CHO-K1-human MSLN-2C8 cells vs Biotin-Tab142; competitor at 40 nM.
Experiment [8] has the same target. Nature of the experiment: competitive FACS on CHO-K1-human MSLN-2C8 cells vs Biotin-Tab142; competitor at 0.064 nM.

Chain of human MSLN full-length protein, recombinant, on CHO-K1 or HEK293T cells (human) (Q13421 other isoform, or with tags, fused parts or gaps limits assumed): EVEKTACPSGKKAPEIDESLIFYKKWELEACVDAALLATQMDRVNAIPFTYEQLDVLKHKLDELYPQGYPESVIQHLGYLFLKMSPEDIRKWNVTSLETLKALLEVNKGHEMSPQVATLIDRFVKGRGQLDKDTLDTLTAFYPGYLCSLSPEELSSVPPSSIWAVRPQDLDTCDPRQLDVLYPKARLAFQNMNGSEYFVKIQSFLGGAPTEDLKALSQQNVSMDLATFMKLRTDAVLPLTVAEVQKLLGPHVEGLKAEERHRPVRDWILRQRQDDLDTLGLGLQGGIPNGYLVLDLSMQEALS
Chain of human MSLN protein endogenously expressed on tumor cells (Hela, OVCAR3) (human) (Q13421 other isoform, or with tags, fused parts or gaps): as the sequence (Q13421 other isoform, or with tags, fused parts or gaps limits assumed) above, with P14R counted along it
Chain of human MSLN full-length protein on transfected cells (CHO-K1-hMSLN clones 2C8, 2D11, 2C5; HEK293T-hMSLN clones B8, 2A4, 2A7) (human) (Q13421 other isoform, or with tags, fused parts or gaps limits assumed): as the sequence (Q13421 other isoform, or with tags, fused parts or gaps limits assumed) above
Chain of chimeric human MSLN-R3 / chicken MSLN-R1-2 protein on HEK293T cells (clone A5) (chicken; human) (Q13421 495-614, change not shown): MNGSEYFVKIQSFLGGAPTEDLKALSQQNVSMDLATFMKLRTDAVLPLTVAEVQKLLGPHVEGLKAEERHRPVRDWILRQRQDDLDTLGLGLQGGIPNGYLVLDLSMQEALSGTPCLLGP

For hIgG1 (antibody), the values for the MFI in experiment [1] and in experiment [4] were 255 and 65, respectively. Moreover, the FACS signal (MFI) was found to be 74 in experiment [2], 59 in experiment [5] and 127 in experiment [6]. Besides, the Max MFI in experiment [3] came out at 115. Also, the MFI of Biotin-Tab142 in experiment [7] and in experiment [8] was 23600 throughout.
